# ± gives the standard deviation of the averaged measurements.
# B1: library; a variant is named by its letters at N, in order (parent)
# chain: GCUGUCACCGAGAAACUGUGAAGUAUAUCUUAAACCUGGGCACUUAAAAGAUAUAUGGAGUUAGUAGUGCAACCUGCUCGGUCUGAUGAGUCCNNNNNNGGACGAAACAGC
# Assays:
# cyclic di-GMP [1] = variants of: B1; experiment: normalized RNA/DNA level without ligand (relative to sTRSVctl = 100) (log10 (% of sTRSVctl)); HEK293T; ligand: cyclic di-GMP (c-di-GMP-II aptamer); higher = less ribozyme self-cleavage, higher mRNA level; details: reporter: mCherry (pCS4076), ligand present: no
# Summary of the method: (§1)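 Total RNA, extracted with EDTA 72 h after HEK293T cells were transfected with 4 µg per 6-well well of reporter-linked ribozyme switch library plasmids, was reverse-transcribed, amplified, barcoded and sequenced. Ligand, if used, was added 1 h before transfection. RNA level was derived from RNA reads divided by DNA reads and normalized to a spiked-in non-cleaving sequence or to the top sequences. This was multiplied by 100 and log10-transformed, with the top set of 25 sequences and a ≥100 DNA read minimum.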
# cyclic di-GMP [2] = variants of: B1; experiment: normalized RNA/DNA level with ligand (relative to sTRSVctl = 100) (log10 (% of sTRSVctl)); HEK293T; ligand: cyclic di-GMP (c-di-GMP-II aptamer); ligand concentration (+) RNA-Seq: 1 mM; higher = less ribozyme self-cleavage, higher mRNA level; details: reporter: mCherry (pCS4076), ligand present: yes
# Summary of the method: as §1
Variant,normalized RNA/DNA level without ligand (log10) (cyclic di-GMP [1]),normalized RNA/DNA level with ligand (log10) (cyclic di-GMP [2])
GUACUG,1.58 ± 0.033,1.78 ± 0.081
CGUAGA,1.44 ± 0.016,1.64 ± 0.14
GAUCGC,1.74 ± 0.019,1.86 ± 0.051
AUAAAA,1.53 ± 0.056,1.67 ± 0.073
ACCGUC,1.73 ± 0.028,1.83 ± 0.11
CGCGUG,1.62 ± 0.034,1.79 ± 0.12
AAGGGC,1.61 ± 0.027,1.75 ± 0.13
UCUCCA,1.758 ± 0.012,1.85 ± 0.12
UCAGGC,1.71 ± 0.027,1.84 ± 0.11
GGUAAG,1.49 ± 0.12,1.65 ± 0.098
UUCACA,1.81 ± 0.029,1.89 ± 0.16
ACUUCU,1.707 ± 0.0019,1.84 ± 0.057
ACUUCC,1.776 ± 0.013,1.89 ± 0.08
UGUCAA,1.69 ± 0.048,1.82 ± 0.096
CACCAG,1.74 ± 0.03,1.88 ± 0.11
UUAAUC,1.77 ± 0.075,1.83 ± 0.14
CCCGUG,1.62 ± 0.024,1.8 ± 0.09
AUGUUG,1.56 ± 0.036,1.72 ± 0.14
AAAGCA,1.656 ± 0.0051,1.77 ± 0.11
UACCAA,1.66 ± 0.022,1.8 ± 0.12
AUACGU,1.67 ± 0.043,1.79 ± 0.059
GAGGAG,1.752 ± 0.014,1.82 ± 0.081
ACUAUU,1.5 ± 0.047,1.7 ± 0.11
AGGCUC,1.78 ± 0.034,1.87 ± 0.087

Variant,normalized RNA/DNA level without ligand (log10) (cyclic di-GMP [1]),normalized RNA/DNA level with ligand (log10) (cyclic di-GMP [2])
AGAUAU,1.61 ± 0.046,1.78 ± 0.14
CCCAUG,1.53 ± 0.08,1.73 ± 0.13
CCUUCC,1.779 ± 0.0029,1.87 ± 0.12
CCCUGU,1.75 ± 0.043,1.87 ± 0.13
AGUGUA,1.51 ± 0.042,1.66 ± 0.11
CCUAGC,1.6495 ± 0.00083,1.82 ± 0.056
GUUGAU,1.61 ± 0.033,1.76 ± 0.14
CAAAAG,1.656 ± 0.0082,1.77 ± 0.14
GUAUUC,1.48 ± 0.036,1.7 ± 0.11
GUUUCA,1.648 ± 0.0058,1.79 ± 0.12
CGAUAG,1.7 ± 0.056,1.87 ± 0.12
GAGUGA,1.71 ± 0.033,1.79 ± 0.14
UAUUAG,1.73 ± 0.042,1.87 ± 0.068
CCACCG,1.74 ± 0.078,1.89 ± 0.14
CCACCC,1.798 ± 0.016,1.87 ± 0.097
CCCCAA,1.59 ± 0.018,1.76 ± 0.14
GCGCCA,1.699 ± 0.0061,1.84 ± 0.13
CGGGUU,1.748 ± 0.012,1.82 ± 0.13
ACCGAG,1.57 ± 0.031,1.74 ± 0.11
UACUAC,1.75 ± 0.037,1.87 ± 0.08
GUAUGC,1.56 ± 0.065,1.75 ± 0.084
CCAAGC,1.59 ± 0.059,1.76 ± 0.13
AGCCGU,1.58 ± 0.048,1.77 ± 0.064
UUGCGG,1.84 ± 0.045,1.94 ± 0.04

Variant,normalized RNA/DNA level without ligand (log10) (cyclic di-GMP [1]),normalized RNA/DNA level with ligand (log10) (cyclic di-GMP [2])
CUGAUC,1.6663 ± 0.001,1.76 ± 0.13
GUACAU,1.61 ± 0.075,1.79 ± 0.074
AGUUAU,1.67 ± 0.06,1.86 ± 0.11
GACCCA,1.75 ± 0.02,1.85 ± 0.093
UUGACG,1.77 ± 0.025,1.88 ± 0.1
UGUUUG,1.77 ± 0.014,1.91 ± 0.12
GAACGG,1.703 ± 0.0094,1.78 ± 0.082
UUGUGA,1.599 ± 0.011,1.79 ± 0.11
CGAUUC,1.63 ± 0.022,1.81 ± 0.075
AAAGUA,1.42 ± 0.076,1.66 ± 0.12
UGGGUA,1.61 ± 0.071,1.78 ± 0.029
UCUGUU,1.636 ± 0.0046,1.82 ± 0.12
GGUGAA,1.34 ± 0.076,1.61 ± 0.07
CCAUCU,1.62 ± 0.074,1.76 ± 0.16
CCGCGC,1.74 ± 0.026,1.87 ± 0.098
UAUACC,1.76 ± 0.053,1.86 ± 0.1
AAUCCA,1.65 ± 0.025,1.79 ± 0.088
GUCGGG,1.73 ± 0.025,1.84 ± 0.13
AACUCU,1.73 ± 0.06,1.88 ± 0.12
CGACGG,1.667 ± 0.013,1.8 ± 0.16
CGACGC,1.74 ± 0.04,1.82 ± 0.12
GCUAGU,1.58 ± 0.069,1.78 ± 0.086
GGGACU,1.68 ± 0.031,1.83 ± 0.056
AGGUCG,1.738 ± 0.013,1.82 ± 0.11

Variant,normalized RNA/DNA level without ligand (log10) (cyclic di-GMP [1]),normalized RNA/DNA level with ligand (log10) (cyclic di-GMP [2])
UGUGCA,1.77 ± 0.02,1.87 ± 0.073
UGUGCG,1.804 ± 0.0083,1.93 ± 0.059
AGCUUC,1.77 ± 0.026,1.9 ± 0.059
GUCGCC,1.77 ± 0.036,1.89 ± 0.12
GGACCA,1.72 ± 0.021,1.81 ± 0.021
AGAAGU,1.57 ± 0.022,1.75 ± 0.16
CUUUCG,1.8 ± 0.046,1.88 ± 0.05
GACUGU,1.654 ± 0.0065,1.8 ± 0.15
UGAACC,1.78 ± 0.022,1.86 ± 0.12
AGAGCC,1.78 ± 0.041,1.88 ± 0.12
GGGCAG,1.823 ± 0.015,1.89 ± 0.045
CUUCGG,1.82 ± 0.028,1.886 ± 0.0058
GCAACC,1.647 ± 0.0045,1.79 ± 0.097
UGCGCC,1.79 ± 0.046,1.92 ± 0.094
GUCGAC,1.5985 ± 0.0011,1.76 ± 0.16
AGAGUU,1.6 ± 0.016,1.8 ± 0.14
UGAGCA,1.84 ± 0.073,1.91 ± 0.11
CCUUUU,1.59 ± 0.065,1.77 ± 0.073
UUCGUU,1.736 ± 0.0061,1.87 ± 0.14
CAGUUG,1.76 ± 0.019,1.87 ± 0.11
UAUCUG,1.725 ± 0.011,1.87 ± 0.089
GAUUAC,1.722 ± 0.0096,1.83 ± 0.081
CAUAGC,1.73 ± 0.062,1.84 ± 0.13
GAGGUA,1.698 ± 0.0042,1.77 ± 0.1

Variant,normalized RNA/DNA level without ligand (log10) (cyclic di-GMP [1]),normalized RNA/DNA level with ligand (log10) (cyclic di-GMP [2])
GUAAUC,1.35 ± 0.22,1.56 ± 0.12
CGGCGA,1.49 ± 0.068,1.67 ± 0.11
GGGUAC,1.73 ± 0.012,1.8 ± 0.045
UCACUA,1.51 ± 0.022,1.73 ± 0.099
GCUCUC,1.66 ± 0.026,1.81 ± 0.079
GGCAUA,1.58 ± 0.11,1.72 ± 0.14
GGCAUU,1.66 ± 0.076,1.82 ± 0.021
UGAUUA,1.704 ± 0.011,1.84 ± 0.11
GUGCAG,1.86 ± 0.06,1.89 ± 0.13
GUGCAC,1.729 ± 0.0059,1.83 ± 0.17
ACGAAC,1.53 ± 0.11,1.72 ± 0.067
AUUCCG,1.75 ± 0.021,1.84 ± 0.078
AGUCAA,1.48 ± 0.039,1.69 ± 0.1
CGCGGA,1.446 ± 0.0059,1.62 ± 0.089
UUCGAA,1.6 ± 0.041,1.82 ± 0.043
ACAAAG,1.4 ± 0.073,1.6 ± 0.06
GCACCC,1.66 ± 0.027,1.84 ± 0.075
ACACGU,1.62 ± 0.043,1.83 ± 0.081
CCCAGU,1.736 ± 0.015,1.86 ± 0.068
AAGUUG,1.56 ± 0.072,1.75 ± 0.11

# Source: the supplement of paper PMC6757056
